# Experimental data as given in patent US20170128520A1 (E AND B TECHNOLOGIES, published 2017).
# T1: endothelial nitric oxide synthase (eNOS) of cultured bovine aorta endothelial cells (BAEC) (bovine, UniProt P29473 2-1205)
# T1 sequence (looked up): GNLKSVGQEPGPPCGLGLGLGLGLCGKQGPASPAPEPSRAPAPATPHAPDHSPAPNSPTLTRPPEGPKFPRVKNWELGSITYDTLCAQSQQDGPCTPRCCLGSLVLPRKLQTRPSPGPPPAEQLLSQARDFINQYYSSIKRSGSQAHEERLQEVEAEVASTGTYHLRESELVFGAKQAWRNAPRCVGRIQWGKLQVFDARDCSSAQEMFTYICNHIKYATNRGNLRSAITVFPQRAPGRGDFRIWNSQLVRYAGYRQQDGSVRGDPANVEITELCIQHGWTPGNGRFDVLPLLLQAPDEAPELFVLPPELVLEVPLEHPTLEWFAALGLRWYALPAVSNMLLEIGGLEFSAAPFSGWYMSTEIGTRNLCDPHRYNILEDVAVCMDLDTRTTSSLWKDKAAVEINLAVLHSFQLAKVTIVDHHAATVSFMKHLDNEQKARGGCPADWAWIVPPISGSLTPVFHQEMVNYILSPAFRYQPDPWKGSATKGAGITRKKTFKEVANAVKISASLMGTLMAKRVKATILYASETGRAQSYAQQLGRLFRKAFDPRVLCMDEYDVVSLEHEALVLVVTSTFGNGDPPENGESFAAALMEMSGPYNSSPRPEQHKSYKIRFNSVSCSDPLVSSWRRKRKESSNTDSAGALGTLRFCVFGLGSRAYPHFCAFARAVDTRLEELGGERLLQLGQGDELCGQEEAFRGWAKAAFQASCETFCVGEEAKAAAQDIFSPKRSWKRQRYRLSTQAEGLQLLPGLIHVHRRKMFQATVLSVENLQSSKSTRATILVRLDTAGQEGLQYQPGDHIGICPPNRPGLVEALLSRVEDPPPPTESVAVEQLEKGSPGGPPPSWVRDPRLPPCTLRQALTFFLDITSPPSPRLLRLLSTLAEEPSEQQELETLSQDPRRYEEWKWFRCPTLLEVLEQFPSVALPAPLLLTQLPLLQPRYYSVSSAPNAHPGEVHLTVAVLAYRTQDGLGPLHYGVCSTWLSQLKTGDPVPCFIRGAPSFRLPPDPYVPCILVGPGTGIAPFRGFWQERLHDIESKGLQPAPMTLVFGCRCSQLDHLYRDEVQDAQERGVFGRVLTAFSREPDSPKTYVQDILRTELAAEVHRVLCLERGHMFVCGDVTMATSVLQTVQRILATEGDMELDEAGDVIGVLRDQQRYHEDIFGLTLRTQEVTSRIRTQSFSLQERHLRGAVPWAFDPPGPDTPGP
# Molecular target: T1, endothelial nitric oxide synthase …
# Test: cell-based or functional assay
row,"EC50 of inhibition of VEGF-induced NO release by BAEC (dose response, non-linear regression)",Binder
1,7.5 µM,RRPPRDGIWKASFTTFTVTKYWFYR [Endo5-Cav (SEQ ID NO. 1/SEQ ID NO. 5)]
2,1.8 µM,RQIKIWFQNRRMKWKKDGIWKASFTTFTVTKYWFYR [AP-Cav (SEQ ID NO. 2/SEQ ID NO. 5)]
